We go through nine molecules from patent publication US20170029530A1 (AbbVie / Abbott, published 2017).

The chains are these.
B1: SC34.49 (antibody, mouse IgG1, V domains shown)
VH: EVQLQQSGPELVKPGSSVKISCKASGYTFTDYHMNWVKQSHGKSLEWIGNINPYYGVSTYNQNLKGTATLTVDKSSSTAYMELRGLTSEDSAVYYCVRRAMDSPRFAYWGQGTLVTVSA
VL: DIQMTQSSSYLSVSLGGRVTITCKASEHINNWLAWYQQKPGNPPRLLISGATSLETGVPSRFSGSGSGKDYTLSITGLQTEDIATYFCQQYRSTPFTFGSGTKLEIK
B2: SC34.61 (antibody, mouse IgG1, V domains shown)
VH: EVKLVESGGGLVKPGGSLKLSCAASGFTFTSYTMSWVRQTPAKRLEWVATISTGGGNTYYPDIVKGRFTISRDNARSTLYLQMSSLRSEDSAMYYCARRFYDGSYNYWYFDVWGAGTTVTVSS
VL: DIQMIQSPSSMFASLGDRVSLSCRASQGIRGNLDWYQQKPGGTIKLLIYSTSNLNSGVPSRFSGSGSGSDYSLTISSLESEDFADYYCLQRDAYPYTFGGGTKLEIK
B3: SC34.50 (antibody, mouse IgG2b, V domains shown)
VH: QVQLQQPGAELVRPGASVKLSCKASGYTFTSYWINWVKQRPGQGLEWIGNIFPSDSYTNYNQKFRDKATLTVDKSSSTAYMQLSSPTSEDSAVYYCTIRTYGNYFDYWGQGTTLTVSS
VL: DIQMTQSSSSFSVSLGDRVTITCKASEDIYNRLAWYQQKPGNAPRLLISGATSLETGVPSRFSGSGSGKDYTLSITSLQTEDVATYYCQQYWSTIFTFGSGTKLEIK
B4: hSC34.28 humanized anti-DPEP3 antibody (antibody, human IgG1, kappa, V domains shown)
VH: QVQLVQSGAEVKKPGSSVKVSCKASGGTFSSYWIEWVRQAPGQGLEWMGEILPGSGNTYYNERFKDRVTITADESTSTAYMELSSLRSEDTAVYYCARRAAAYYSNPEWFAYWGQGTLVTVSS
VL: EIVLTQSPATLSLSPGERATLSCTASSSVNSFYLHWYQQKPGLAPRLLIYSTSNLASGIPDRFSGSGSGTDFTLTISRLEPEDFAVYYCHQYHRSPYTFGQGTKLEIKR
notes: Human IgG1/kappa
B5: hSC34.38 humanized anti-DPEP3 antibody (antibody, human IgG1, kappa, V domains shown)
VH: EVQLVQSGAEVKKPGESLKISCKGSGYSFTSYYMYWVRQMPGKGLEWMGEINPSNGGANFNERFKNQVTISADKSISTAYLQWSSLKASDTAMYYCTRGLLYYDYDRGFAYWGQGTLVTVSS
VL: DVVMTQSPLSLPVTLGQPASISCKSSQSLLYSNRRTYLNWFQQRPGQSPRRLIYLVSKLDSGVPDRFSGSGSGTDFTLKISRVEAEDVGVYYCVQGTHFPFTFGQGTKLEIKR
notes: Human IgG1/kappa
B6: hSC34.11 humanized anti-DPEP3 antibody (antibody, human IgG1, kappa, V domains shown)
VH: EVQLVQSGAEVKKPGESLKISCKGSGYSFTNYWMIWVRQMPGKGLEWMGYIDPTTDYTAYNQKFKDQVTISADKSISTAYLQWSSLKASDTAMYYCARGGNVALDFWGQGTLVTVSS
VL: DIQMTQSPSSLSASVGDRVTITCKSSQSLLNSRTRKNYLAWYQQKPGKVPKLLIYWASTRESGVPSRFSGSGSGTDFTLTISSLQPEDVATYYCKESYNLWTFGGGTKVEIKR
notes: Human IgG1/kappa; The order is confirmed for hSC34.2 and hSC34.28
B7: hSC34.25 humanized anti-DPEP3 antibody (antibody, human IgG1, kappa, V domains shown)
VH: QVQLVQSGAEVKKPGASVKVSCKASGYTFTSYAISWVRQAPGQRLEWMGEIYPGSGETYYNEKFKGRVTITRDTSASTAYMELSSLRSEDTAVYYCARVNDYGSWFPYWGQGTLVTVSS
VL: DIVMTQSPDSLAVSLGERATINCKSSQSLLYSRYQKNYVAWYQQKPGQPPKLLIYWASTRESGVPDRFSGSGSGTDFTLTISSLQAEDVAVYYCQQYYRYPLTFGQGTKLEIKR
notes: Human IgG1/kappa
B8: hSC34.2 humanized anti-DPEP3 antibody (antibody, human IgG1, kappa, V domains shown)
VH: EVQLVQSGAEVKKPGESLKISCKGSGYSFTDYYINWVRQMPGKGLEWMGWTYPGSGPTKYNGKFRGQVTISADKSISTAYLQWSSLKASDTAMYYCARRGIYYYDGIYPNYFDYWGQGTTVTVSS
VL: DIQMTQSPSSLSASVGDRVTITCSASQGITNYLNWYQQKPGKAPKLLIYYTSRLHSGVPSRFSGSGSGTDFTLTISSLQPEDFATYYCQQYSKLPWTFGQGTKVEIKR
notes: Human IgG1/kappa
B9: hSC34.87 humanized anti-DPEP3 antibody (antibody, human IgG1, kappa, V domains shown)
VH: QVQLVQSGAEVKKPGASVKVSCKASGYTFTSYWMLWVRQAPGQRLEWMGYIDPRNGYTEYNQKFKDRVTITRDTSASTAYMELSSLRSEDTAVYYCARGGNVAMDYWGQGTLVTVSS
VL: DIVMTQSPDSLAVSLGERATINCKSSQSLLNSRTRKNYLAWYQQKPGQPPKLLIYWASTRESGVPDRFSGSGSGTDFTLTISSLQAEDVAVYYCKQSYNLWTFGGGTKLEIKR
notes: Human IgG1/kappa

A value given as a limit tells only on which side of the number the result lay.

One assay has as its target T1, cDPEP3 (Macaca fascicularis, UniProt Q4R7M2).
T1 construct: extracellular domain; also called cynomolgus DPEP3-His; cynomolgus DPEP3 ECD with histidine tag
T1 sequence (single chain, looked up): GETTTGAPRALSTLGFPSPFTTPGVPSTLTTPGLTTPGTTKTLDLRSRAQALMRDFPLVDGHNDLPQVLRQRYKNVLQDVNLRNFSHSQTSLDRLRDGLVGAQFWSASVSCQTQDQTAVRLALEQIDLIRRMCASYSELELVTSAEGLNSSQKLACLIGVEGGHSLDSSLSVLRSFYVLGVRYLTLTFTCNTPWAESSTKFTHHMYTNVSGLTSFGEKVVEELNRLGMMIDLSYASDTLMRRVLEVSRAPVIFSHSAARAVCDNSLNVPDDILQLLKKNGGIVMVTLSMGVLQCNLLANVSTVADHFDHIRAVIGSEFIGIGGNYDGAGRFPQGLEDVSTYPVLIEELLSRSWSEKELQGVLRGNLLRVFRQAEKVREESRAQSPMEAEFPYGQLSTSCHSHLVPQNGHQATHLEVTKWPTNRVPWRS
The assay can be described thus: ELISA, coated antigen. In general terms: An ELISA detects its analyte on a solid surface through an enzyme-linked reagent.
Turning to B1, the binding result is on record as “no binding (tested: 1 ug/mL)”.
For the molecule B2, the binding result was “no binding (tested: 1 ug/mL)”.
On to B3, for which the binding result was “no binding (tested: 1 ug/mL)”.

A further assay addresses T2, mDPEP3 (limits assumed).
T2 construct: also called mouse DPEP3-His; mouse DPEP3 ECD with histidine tag
T2 single chain: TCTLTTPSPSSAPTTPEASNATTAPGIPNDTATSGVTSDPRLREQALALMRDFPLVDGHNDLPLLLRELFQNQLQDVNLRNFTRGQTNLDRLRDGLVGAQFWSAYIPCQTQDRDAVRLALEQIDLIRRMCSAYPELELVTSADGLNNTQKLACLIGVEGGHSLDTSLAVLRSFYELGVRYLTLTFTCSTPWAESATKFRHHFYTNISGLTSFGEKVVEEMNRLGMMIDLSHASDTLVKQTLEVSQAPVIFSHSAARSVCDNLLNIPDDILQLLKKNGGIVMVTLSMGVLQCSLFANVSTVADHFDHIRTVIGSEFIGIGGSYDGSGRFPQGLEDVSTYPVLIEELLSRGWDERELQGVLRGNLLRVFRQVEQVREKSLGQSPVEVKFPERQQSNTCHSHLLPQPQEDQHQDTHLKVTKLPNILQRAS
The assay can be described thus: ELISA, coated antigen.
With B1, the binding result is “no binding (tested: 1 ug/mL)”.
As to B2, the binding result is reported as “no binding (tested: 1 ug/mL)”.
As to B3, the binding result is given as “no binding (tested: 1 ug/mL)”.

For the next assay, the target named is T3, rat DPEP3 ECD with histidine tag (rat, UniProt Q5U2X4 36-459, limits assumed).
T3 construct: also called rDPEP3-His; ratDPEP3-His; not shown: histidine tag
T3 sequence: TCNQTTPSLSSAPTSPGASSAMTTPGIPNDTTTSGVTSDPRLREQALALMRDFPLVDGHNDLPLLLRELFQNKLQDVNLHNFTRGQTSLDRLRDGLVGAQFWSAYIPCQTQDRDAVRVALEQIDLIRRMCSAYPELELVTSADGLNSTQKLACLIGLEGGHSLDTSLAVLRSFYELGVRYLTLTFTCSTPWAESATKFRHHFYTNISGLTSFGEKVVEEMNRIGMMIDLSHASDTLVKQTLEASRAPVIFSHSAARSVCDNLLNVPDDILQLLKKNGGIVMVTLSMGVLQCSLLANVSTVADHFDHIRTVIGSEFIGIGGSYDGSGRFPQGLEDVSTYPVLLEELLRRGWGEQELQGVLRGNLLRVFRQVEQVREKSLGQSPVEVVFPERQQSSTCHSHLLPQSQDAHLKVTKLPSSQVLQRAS
Briefly: ELISA, coated antigen.
With B1, the binding result was “no binding (tested: 1 ug/mL)”.
Regarding B2, the binding result is on record as “no binding (tested: 1 ug/mL)”.
In the case of B3, the binding result is on record as “no binding (tested: 1 ug/mL)”.

In the next assay the target is T4, hDPEP2 ECD with histidine tag (human, UniProt Q9H4A9 33-463).
T4 construct: also called hDPEP2-His; not shown: histidine tag
T4 sequence (Q9H4A9 33-463): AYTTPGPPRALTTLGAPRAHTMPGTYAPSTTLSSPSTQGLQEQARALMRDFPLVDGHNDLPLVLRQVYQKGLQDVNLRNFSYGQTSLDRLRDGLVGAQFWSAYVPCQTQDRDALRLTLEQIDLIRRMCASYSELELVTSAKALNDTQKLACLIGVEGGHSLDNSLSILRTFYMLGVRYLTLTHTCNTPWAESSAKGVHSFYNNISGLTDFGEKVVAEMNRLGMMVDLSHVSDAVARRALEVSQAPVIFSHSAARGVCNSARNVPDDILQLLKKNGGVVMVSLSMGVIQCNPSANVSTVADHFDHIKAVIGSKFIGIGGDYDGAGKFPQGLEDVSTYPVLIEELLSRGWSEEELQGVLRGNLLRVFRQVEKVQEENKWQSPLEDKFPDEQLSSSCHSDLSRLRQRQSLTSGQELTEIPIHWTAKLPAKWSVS
The assay can be described thus: ELISA, coated antigen.
Regarding B1, the binding result is recorded as “no binding (tested: 1 ug/mL)”.
In the case of B2, the binding result is on record as “no binding (tested: 1 ug/mL)”.
On to B3, for which the binding result was “no binding (tested: 1 ug/mL)”.

For a further assay, the target named is T3, rat DPEP3 ECD with histidine tag. The assay can be described thus: SPR, BIAcore 2000, antibody captured with anti-human capture kit.
With B4, the binding result is recorded as “no binding”.
Regarding B5, the binding result is “no binding”.
As for B6, the binding result is given as “no binding”.
On the same count and under the same terms, the entry for B7 is “no binding”; for B8 it is “no binding”.
On the same count and under the same terms, the entry for B9 is “no binding”.

The target in another assay is T5, hDPEP1-His (human, UniProt P16444 17-385, limits assumed).
T5 construct: Neither the origin nor the limits of this protein are described; not shown: histidine tag
T5 sequence (looked up): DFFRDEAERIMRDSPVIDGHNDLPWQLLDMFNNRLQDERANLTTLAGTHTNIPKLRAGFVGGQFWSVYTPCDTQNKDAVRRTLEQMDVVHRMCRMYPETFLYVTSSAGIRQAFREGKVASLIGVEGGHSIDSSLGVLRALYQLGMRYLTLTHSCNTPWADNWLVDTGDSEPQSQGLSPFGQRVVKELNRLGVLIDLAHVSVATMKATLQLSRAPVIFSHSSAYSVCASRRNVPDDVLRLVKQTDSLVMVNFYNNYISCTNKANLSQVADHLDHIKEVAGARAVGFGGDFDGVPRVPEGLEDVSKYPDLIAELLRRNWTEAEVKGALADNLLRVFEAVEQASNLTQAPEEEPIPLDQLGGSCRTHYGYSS
Described as above.
Regarding B4, the binding result is “no binding”.
For B5, the binding result is reported as “no binding”.
B6: the binding result is given as “no binding”.
Take B7: the binding result was “no binding”.
As to B8, the binding result is “no binding”.
With B9, the binding result is “no binding”.

A further assay concerns the target T6, hDPEP3-ECD-His (human, UniProt Q9H4B8 36-463).
T6 construct: also called hDPEP3-His; monomeric hDPEP3-His antigen; not shown: histidine tag
T6 sequence: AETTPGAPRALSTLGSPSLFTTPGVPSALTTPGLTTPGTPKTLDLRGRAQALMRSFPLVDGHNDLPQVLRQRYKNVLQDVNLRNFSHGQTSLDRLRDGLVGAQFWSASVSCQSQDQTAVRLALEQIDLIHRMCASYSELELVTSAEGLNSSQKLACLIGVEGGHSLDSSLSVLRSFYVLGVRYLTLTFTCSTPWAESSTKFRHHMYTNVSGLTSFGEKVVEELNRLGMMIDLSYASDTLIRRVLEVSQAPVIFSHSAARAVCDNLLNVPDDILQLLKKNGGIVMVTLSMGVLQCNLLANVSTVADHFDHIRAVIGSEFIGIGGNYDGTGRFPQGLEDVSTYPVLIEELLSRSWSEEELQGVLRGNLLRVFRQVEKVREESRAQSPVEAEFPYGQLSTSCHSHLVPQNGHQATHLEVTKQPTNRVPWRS
The assay can be described thus: BLI ForteBio RED, 200 nM hDPEP3-His, estimated grade. In short, it runs like this:
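Antibodies were captured on anti-mouse Fc biosensors to 0.3-1 units, then exposed to hDPEP3-His for a 4 min association and a 3 min dissociation at 1000 rpm. A control mouse IgG response was subtracted, and KD was estimated qualitatively from the curves. Sensors were regenerated with 10 mM glycine, pH 1.7.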
Turning to B1, the Kd was greater than 10 nM.
Consider B2, for which the Kd is greater than 10 nM.
Consider B3, for which the equilibrium dissociation constant (Kd) was greater than 10 nM.

One may read the Kd as the concentration at which binding is half-saturated.
